Measured values reported in patent US20170101451.

What was measured:
[1] = system: stromal cell derived factor-1 (SDF-1alpha), unmutated
SDF-1 17AA = system: T1, SDF-1 17AA
T1 sequence: KPVSLSYRCPCRFFESH

Chain of matrix metalloproteinase-2 (MMP-2) (P08253 110-660): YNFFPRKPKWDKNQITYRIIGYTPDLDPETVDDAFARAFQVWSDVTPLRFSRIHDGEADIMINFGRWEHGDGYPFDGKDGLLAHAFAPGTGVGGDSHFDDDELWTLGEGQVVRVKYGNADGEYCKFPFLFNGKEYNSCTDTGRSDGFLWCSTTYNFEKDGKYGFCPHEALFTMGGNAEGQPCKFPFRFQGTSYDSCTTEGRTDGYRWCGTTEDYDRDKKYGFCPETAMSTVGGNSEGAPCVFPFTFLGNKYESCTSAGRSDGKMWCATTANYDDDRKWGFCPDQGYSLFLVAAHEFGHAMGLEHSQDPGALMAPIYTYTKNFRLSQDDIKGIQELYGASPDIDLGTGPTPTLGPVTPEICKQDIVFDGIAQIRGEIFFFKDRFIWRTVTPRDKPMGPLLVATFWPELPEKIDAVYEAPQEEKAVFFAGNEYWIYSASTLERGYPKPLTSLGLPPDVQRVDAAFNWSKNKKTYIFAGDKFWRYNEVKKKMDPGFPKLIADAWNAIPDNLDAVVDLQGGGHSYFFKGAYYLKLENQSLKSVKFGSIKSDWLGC
Chain of SDF-1(L5E) (chain, as listed by the source): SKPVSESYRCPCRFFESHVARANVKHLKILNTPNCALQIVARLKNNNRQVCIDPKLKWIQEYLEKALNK
Chain of SDF-1(L5W) (chain, as listed by the source): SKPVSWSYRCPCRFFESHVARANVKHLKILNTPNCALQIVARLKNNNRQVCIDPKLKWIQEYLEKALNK
Chain of stromal cell derived factor-1 (SDF-1alpha), unmutated (chain, as listed by the source, change not shown): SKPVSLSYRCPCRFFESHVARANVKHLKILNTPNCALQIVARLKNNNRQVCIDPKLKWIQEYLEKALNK
Chain of SDF-1(L5P) (chain, as listed by the source): as the sequence (chain, as listed by the source, change not shown) above, with L6P counted along it
Chain of SDF-1(S4V) (chain, as listed by the source): as the sequence (chain, as listed by the source, change not shown) above, with S5V counted along it

matrix metalloproteinase-2 (MMP-2)
cleavage by MMP-2: SDS-PAGE positional shift after one hour incubation [1]: unlike SDF-1, the mutants did not undergo a positional shift indicative of cleavage
cleavage by MMP-2: SDS-PAGE, 2 nmole peptide incubated with MMP-2 for 1 h at RT (SDF-1 17AA): showing cleavage of SDF-1 17AA
cleavage by MMP-2: SDS-PAGE positional shift after one hour incubation (SDF-1(S4V)): unlike SDF-1, the mutants did not undergo a positional shift indicative of cleavage
cleavage by MMP-2: SDS-PAGE positional shift after one hour incubation (SDF-1(L5W)): unlike SDF-1, the mutants did not undergo a positional shift indicative of cleavage
cleavage by MMP-2: SDS-PAGE positional shift after one hour incubation (SDF-1(L5P)): unlike SDF-1, the mutants did not undergo a positional shift indicative of cleavage
cleavage by MMP-2: SDS-PAGE positional shift after one hour incubation (SDF-1(L5E)): unlike SDF-1, the mutants did not undergo a positional shift indicative of cleavage
